Reference: the DeepSol protein solubility set

Assay: soluble on expression in E. coli; label from the status in PepcDB or PDB records

| Sequence | soluble on expression in E. coli |
| --- | --- |
| MSLDLRKSKELTGIEAHINDNKKEESNVEYFEKLRSALLDGVNKGRSLLKHLPVTRIEGQSFRVDIIKFEDGVRVVKQEYKPIPLLKKKFYVGIRELNDGTYDVSIATKAGELLVKDEESLVIREILSTEGIKKMKLSSWDNPEEALNDLMNALQEASNASAGPFGLIINPKRYAKLLKIYEKSGKMLVEVLKEIFRGGIIVTLNIDENKVIIFANTPAVLDVVVGQDVTLQELGPEGDDVAFLVSEAIGIRIKNPEAIVVLEEGHHHHHH | soluble |
| MSDGKEELVNRAKLAEQAERYDDMAASMKKVTELGAELSNEERNLLSVAYKNVVGARRSSWRVISSIEQKTEGSEKKQQMAKEYREKVEKELRDICQDVLNLLDKFLIPKAGAAESKVFYLKMKGDYYRYLAEVASGDDRNSVVEKSQQSYQEAFDIAKDKMQPTHPIRLGLALNFSVFFYEILNAPDKACQLAKQAFDDAIAELDTLNEDSYKDSTLIMQLLRDNLTLWTSDAATDDTDANETEGGN | soluble |
| MGSDKIHHHHHHMKISIIGAGSVRFALQLVGDIAQTEELSREDTHIYMMDVHERRLNASYILARKYVEELNSPVKIVKTSSLDEAIDGADFIINTAYPYDPRYHDSGSQRWDEVTKVGEKHGYYRGIDSQELNMVSTYTYVLSSYPDMKLALEIAEKMKKMAPKAYLMQTANPVFEITQAVRRWTGANIVGFCHGVAGVYEVFEKLDLDPEEVDWQVAGVNHGIWLNRFRYRGEDAYPLLDEWIEKKLPEWEPKNPWDTQMSPAAMDMYKFYGMLPIGDTVRNGSWKYHYNLETKKKWFGKFGGIDNEVERPKFHEQLRRARERLIKLAEEVQQNPGMKLTEEHPEIFPKGKLSGEQHIPFINAIANNKRVRLFLNVENQGTLKDFPDDVVMELPVWVDCCGIHREKVEPDLTHRIKIFYLWPRILRMEWNLEAYISRDRKVLEEILIRDPRTKSYEQIVQVLDEIFNLPFNEELRRYYKEKL | soluble |
| MSLSVEFNKQQVRPRSEISPQDCWDITPLYLNRKAWKADLDSFGLKTDGSPTWPALQATQYQLDNSESLLSLLTTLFSIERKLNKLYVYAHLTHDQDITNQEGIADLKSITHLHTLFAEETSWVQPALTSLSESLIAQHLSAPCLAPYRFYLEKIFRLSIHTGTPGEEKILASAFTPLEVASKAFSSLSDSEIPFGQATDSEGNSHPLSHALASLYMQSTDRELRKTSYLAQCERYHSYRHTFANLLNGKIQAHVFYAKNKRYNSCLQAALYHNNIPTTVYTNLIDIVKKNSSLITKYFSIKQRCLNLKDFHFYDVYAPLSQSKEKKYTFQEAVDLIYTSLSPLGTEYIDTLKQGLTTQGWVDKYENLNKRSGAYSSGCYDSHPYVLLNYTGTLYDVSVIAHEGGHSMHSYFSRKHQPFHDAQYPIFLAEIASTLNEMLLMDSMLKESDSKEEKITILTRCLDTIFSTLFRQVLFASFEYDIHHAAEHGVPLTEEYLSSTYKNLQNEFYGEIITFDVLSNIEWARIPHFYYNFYVYQYATGIIAALCFLEKILNNEDNALNSYLNFLKSGGSDFPLEILKKSGLDMGTVEPIQKAFCFIEKKIQELSSLIEGHHHHHH | soluble |
| MTSLSVNDRKDFVDGQMKYWRQIAESDGFDIDDVPVPRGTRAGLWSVDCKHPRFRLRACLPKIYAMVGLHRYNLLRGTNFEHLELLKYNESMNCVCSYYITSVAVDLSSQLQKTFQIRVDEKSFGDLDLTVSVARPNDEEKVTTEKRFIHHFHCEAAADDFYKGALPDWPSVGDLNNQKRFYMVKKCELQSNDWIRLYLELAVGVRYQQTSESDLSKLQVLKVAIETKEEDVQPPNRRLKSKSLHVYITFKGLAKAPIGDEIGEHVERKAIVRRVIDERSGHLTLLGGFSNAKNDLNQSSDDEQPFGKRRRI | soluble |
| MQQASHPTVILGGGFAGLFTALHLSQQNYSYPIILIEQRDRFSFKPLLYELLSGELHSQQVYPRYQELLAGSKVKFVQDTVQSIDIHQQRVDTVSGQAFHYSNLILALGSKTTYFATPGAAEYAMPFTSGEQAIALRQHLRHKLYQAIQTSDSERRRLLLTVAIIGAGPSGIELACTLADLLPIWYDELGGDGSEIHVVLVNRSREILKGDVNSHLRCTVERAMKNRLIPVDFLFDAAVTKITPDGVECRRHGQIQMLQAGTIAWTAGTAPHPLLMELPVSQNRGRLLVKPTLQLSNFPEIFAAGDCATDSDHPQPPTAQVAYQQGIAIAQNLQRISQNKPTIPVQLEHHHHHH | not soluble |
| SLPLQQYRDFIDNQMLLLVAQRDRASRIFPHLYLGSEWNAANLEELQRNRVTHILNMAREIDNFYPERFTYHNVRLWDEESAQLLPHWKETHRFIEAARAQGTHVLVHCKMGVSRSAATVLAYAMKQYECSLEQALRHVQELRPIARPNPGFLRQLQIYQGILTART | not soluble |
| GMTARNILSYSYEEYVEKITAFHGYPAPGVLIGGFMVDLAVKNLPEGILYDAICETRTCLPDAVQLLTPCTFGNGWLTVLPMGLFAVSLYDKFTGEGVRVFLDVEKMGPWQEIRNWFLKLKTKKEQDSERLFKEIREAGPDILELRNVKLKPGFLEKKHKGKIVLCPQCREAYPAQDGELCLSCQGGSPYL | soluble |
| MSLGKEGLERLVYMVDRSDSLSLLQERIDSIEVVAPQVFSFTLEGTVYGEVDPRIIALAKERGKKLMPLVMNENFEKEKIKAFLANPKAQERLIGSLIKIALKEGFGGWQLDFEHLGITSKEAYTQLVRQLYARLKEHHLSLSIAVVPPRGEEPKNAYGAKVFEDWVSPYDLKALAEHSDFLTLMAYDQHTGGSTPGPIASRAWVEGIIQEALIWVPKEKLSLGIPLYSRLWHAGIKEEKMRGVAKSLTFAGAMDWLERQGAETLWLERDGVKWAMGERGGVKEYLFMEEARSLALKVELAKRYGLRGISLWRLGQEDPRIWDELEGHHHHHH | soluble |
| MDVKLLAHTQLSEEFVNYLSVVFGIGDEGFDPTHGQVVALSAIRTCYSPNKPSRIVSLEGEKYFKGKATDGKGGKEVDRLIRHIVGSGHASTLEHLTYTFAVEGVSRALLAQLTRHRVGFSYSVQSQRYVRMGSNDKIGGFDYVVPETVKAKGEQVVNAYNEMMYKLQSGYDLLRTLGIPAEDARSVLPNAAATNLVLTVNLRGLLDFYNKRRKGKGAQAEIAELAEQLRQEVVKVEKWVDEFFWKWKVTEV | not soluble |
| MSLLEWDLSALFHDKEALQNFTQDQIQQSLNFKKNYENKLYTLNANEFLQALKDYENLNQALGKIMTYAYLLFAKNTQNGSFYAQYEEECKKIEENLLFFELEFCELAPEKSREFTTFCKDYDFYLSNLLQNKRYNLSKNEERIMLYLSNTGANAFSRLFDESMSALKIPFEGKKLSEEEILSKMYDENRKIRKKAAKKFSKVLQKNSRLLSFIINMIKTERKNISLLRGYENAEISRHISNQISQKSVDSLIASAQKHFNLVSQFYKRKKQILGYDELKDYDRYAPIGKEASFDFKTSKNIVLEAFQAFSPQFYDIAKNAFDQGWIDVYPQENKQGGAFSHSATSDAHPFVLLNHTNKRRDLFTLAHELGHTIHQKLSYNVSYLNQNTPLTTAETASVFAEMLVFDFIKDKLKKEELLSLYANKIEDIFATFYRQINFTCFERRLHAQENELSTEEINKIWMEESQKMFQDSVKLTKNYASWWSYIPHFIHSPFYCYAYAYAQLLVLALYGLYKSKKCENFKELYIKMLSLGGSVSPKELVGMFGFDIEDENFWEIGIKEIQKLINEFMELQSEGHHHHHH | soluble |
| MMSDRHFQGNRIRLRAPEPEDLEVMFRFENATDVWEMSNTTGPYSRFQLKQYIEQTQNDLFADRQLRLMIENGNRQVVGIVDLCSFDPLHNRAEVGIMVDKSCRRQGIGRNALALLEEHCFRYLGIHQLFAYIAVENLPSRRLFAACGYKESAVLKEWAHTFGGGYTDVLVVQKLNLS | not soluble |
| MITLYGFGKCFNVMDASPFVVKVDLFMRMANIPCQVKYGAKYLKKSPKGKLPFINDNGTVVADSDAIITYLTKQYQVTLDAELTPEQKAQAHLITKSLDEGLYWCLVYSRWATDECWPLTNEAFFATLPIPLRWFLPNIIRKSVKKNLHGQGVGRHSLEEILAISDKSLASLSTLLADKNFFFGDTHTSFDAVVYSHLCEFISVRFDNGFESKFTKNAKRYQNLVQFCQRIEDKFYPEKLEHHHHHH | soluble |
| GAMGQTTFTELMQQLFLKLGLNHQVNENDVYTFEVDGHIQVLIACYHQQWVQLFSELGADLPTNDNLFGEHWPAHVQGRLDGKSILWSQQSLVGLDIDEMQAWLERFIDDIEQRKEPQNTKFQPNSTSPILFI | soluble |
| GLPDSAFEHDGQLTKRDVRAITLARLAPVPGELLWDVGAGCGSIGIEWMRAHPTCRAMAIEADEGRQQLIEFNRDALGVPGLQLVRGSAPQALSGLERPDAIFIGGGVTRIGVLETCWEQLRSGGRLVANAVTLQSEAALMAWRERHGGELTRIHVAHAQPLGEFDTWRQALPITLLDVVKP | not soluble |
| MEAESAPQAPMSGGRVLKMVTEMGSATVGGISPALSANAAKSFLEATDKEKKTLQGLNDRLGNYIDRVKKLEEQNRKLVADLDELRGKWGKDTSEIKIKYSESLSTARKDIDDAARRKAEVDVKVARHRDDLAEYRSRYEDIQQRRESDREKISQWTNAIADAQSEVEMLRARFKQLTDEEKRVTADNSRIWEELQKARSDLDDETIGRIDFQNQVQTLMEELEFLRRVHEQEVKELQALLAQAPADTREFFKNELALAIRDIKDEYDIIAKQGKQDMESWYKLKVSEVQGSANRANMESTYQRDEVKRMRDNIGDLRGKLGDLENKNSLLEKEVQNLNYQLTDDQRQYEAALNDRDATLRRMREECQTLVAELQALLDTKQMLDAEIAIYRKMLEGEETRVGLTQMVEQAVKTHSLQQQENTDSTRSVRGEVSTKTTFQRSAKGNVTISECDPNGKFIKLENSHRNKDENVGEHKIRRKLDGRREIVYSIPANVVIKPGKNLTIYARDQGGINNPPESLVFDGENTWGIGANVVTSLVNKDGEERATHTQKTIQSGQ | not soluble |
| MRLFHELLGPLELPDRFSRIVSLAPNLTDALFALGLGERLVGRSAFCHRPAPVLALPVVASYTKTRLELLRSLKPDLVLLSTGVQREQALRLKEEGFPVYAVPLPTSPYGILENLSTLGHLLDLEERAVALAHELSGRYAALRGRFDLRVYFEMDLGGPITVGRGSYIAQALLHMGLKPIFLDVPQAYFAPDLEEVRRRAPDLFLYEPKPWGKNPLEKARALARERGWDFPVAATDGDELAHYGPMFFGFLEKLARRVEETLGQA | soluble |
| MGSDKIHHHHHHMTEQFNINQFNCSISGKGQTLIWAHGSTGCIQSEDAIGLYAWHRFPKKLQLIRYDAVGHGLSSAGKCVEDYLWPELANDMISVATHCKATSELILGGQSMGSATSLYAALKHPGMVKGLILMNPPNAWHSRAAQVDEYHKMAKAARIFGGKGLAKISAKHWDKLLPNWLINGHEHSVLGMLDGLKQMTSQTLDQLFRAAALNDLPNKQLLSGLTMPTLILAWHGDKTHPVETAIELHQTLPNSTLHIADSVDEVNEWPELISEFCFRL | not soluble |
| HSLFPIPRMGDSAAKIVSPQEALPGRKEPLVVAAKHHVNGNRTVEPFPEGTQMAVFGMGCFWGAERKFWTLKGVYSTQVGFAGGYTPNPTYKEVCSGKTGHAEVVRVVFQPEHISFEELLKVFWENHDPTQGMRQGNDHGSQYRSAIYPTSAEHVGAALKSKEDYQKVLSEHGFGLITTDIREGQTFYYAEDYHQQYLSKDPDGYCGLGGTGVSCPL | soluble |
| MSLTNTNAVELVKEAIDRGAEIILVKVDSKKYVKMSLELVKHFTEFAEGIFVTLNRPYFSLKKMLLKEGVDISKLYFIDCITLQLGGQVIDEERCFYLTSPDPVQLQVTIERAMDLVTVNNRFIYLDSLSTISLYKSFETLVKFLRHLTGKMRLRGFVGTIFTIEKEMDESYYSQISLMVDEVIEVDEGHHHHHH | soluble |
